Reference: patent US20250320295A1 (INHIBRX BIOSCIENCES, published 2025)
Changes are numbered by the printed parent chain. Blank lines part the entries; values can stand above or below the binder they belong to.

Experiments:
IL-2 receptor = target: T1, IL-2 receptor (human, UniProt P01589 22-272; P14784 27-551; P31785 23-369); assay: cell-based or functional assay
T1 sequence (looked up) 1: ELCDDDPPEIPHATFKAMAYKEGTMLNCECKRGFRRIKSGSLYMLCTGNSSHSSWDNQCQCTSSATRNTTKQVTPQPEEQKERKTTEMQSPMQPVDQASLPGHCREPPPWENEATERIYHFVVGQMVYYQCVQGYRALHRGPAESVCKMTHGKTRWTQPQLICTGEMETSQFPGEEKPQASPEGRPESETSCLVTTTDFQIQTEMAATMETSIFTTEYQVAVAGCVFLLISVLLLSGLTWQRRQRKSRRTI
T1 sequence (looked up) 2: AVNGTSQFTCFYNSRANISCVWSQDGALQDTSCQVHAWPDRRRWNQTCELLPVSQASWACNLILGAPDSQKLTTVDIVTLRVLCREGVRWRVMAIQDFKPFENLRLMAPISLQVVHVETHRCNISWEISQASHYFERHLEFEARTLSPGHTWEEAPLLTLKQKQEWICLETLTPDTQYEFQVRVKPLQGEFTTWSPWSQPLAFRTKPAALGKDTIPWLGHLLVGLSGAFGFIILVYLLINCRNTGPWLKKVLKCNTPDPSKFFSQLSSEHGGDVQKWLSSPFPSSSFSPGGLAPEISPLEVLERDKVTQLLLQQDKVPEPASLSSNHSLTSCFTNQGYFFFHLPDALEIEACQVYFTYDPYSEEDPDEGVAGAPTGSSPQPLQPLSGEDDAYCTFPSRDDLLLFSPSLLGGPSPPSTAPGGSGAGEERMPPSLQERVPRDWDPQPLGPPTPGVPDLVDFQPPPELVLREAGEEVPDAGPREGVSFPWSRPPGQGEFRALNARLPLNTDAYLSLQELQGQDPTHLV
T1 sequence (looked up) 3: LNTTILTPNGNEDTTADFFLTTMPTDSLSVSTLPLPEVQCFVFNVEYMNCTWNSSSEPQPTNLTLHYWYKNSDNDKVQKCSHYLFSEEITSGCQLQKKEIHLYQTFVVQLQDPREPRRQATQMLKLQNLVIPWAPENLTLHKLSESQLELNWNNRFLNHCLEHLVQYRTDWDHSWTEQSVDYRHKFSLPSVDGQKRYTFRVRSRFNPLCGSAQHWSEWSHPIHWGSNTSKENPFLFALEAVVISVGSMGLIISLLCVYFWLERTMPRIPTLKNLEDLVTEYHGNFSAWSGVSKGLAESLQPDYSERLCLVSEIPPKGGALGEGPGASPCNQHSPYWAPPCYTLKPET

Cynomolgus monkey CD8a [1] = target: T2, Cynomolgus monkey CD8a (cynomolgus monkey); assay: flow cytometry, cynomolgus PBMC, PI-CD3+CD4- gate
T2 construct: whole, on cells; On transfected HEK293F cells (full length) or natively on cynomolgus PBMC T cells; also called cynomolgus CD8a-FL; cynomolgus monkey CD8α
Procedure: (§1) Binding of four polypeptides comprising a humanized CD8a-binding VHH domain fused to an xELL fc region was assessed by flow cytometry on isolated human T cells and on isolated human or cynomolgus monkey peripheral blood mononuclear cells (PBMC). The isolated cells were plated in a 96-well plate at 200,000 cells per well for cynomolgus monkey PBMC, and 100,000 cells per well for human T cells in FACS buffer (PBS, 1% BSA, 0.1% NaN₃, pH 7.4). […] FACS buffer alone was used as a secondary antibody-only control. Polypeptide dilutions were added to an equal volume of cells, and assay plates were incubated for 30 minutes at 4° C. After washing twice with 150 μL of FACS buffer per well, the cells were resuspended in FACS buffer with a fluorescently labeled anti-human IgG antibody diluted 1:1000 to detect CD8α binding, fluorescently labeled anti-CD3 antibody (clone SP34.2, 1:50, for PBMC preparations only), and fluorescently labeled anti-CD4 antibody (clone OKT4, 1:100). Propidium iodide (PI) was added at 1:2000 to distinguish live cells from dead cells. Assay plates were incubated at 4° C. for 30 minutes. After one additional wash with 150 μL of FACS buffer CD8α binding was detected by flow cytometry on PI−(CD3+) CD4− cells. Binding was measured on these cell populations as mean fluorescence intensity (MFI) at 647 nm. Flow cytometric detection was performed on an ACEA Biosciences Novocyte-Quanteon Flow Cytometer. The data were plotted and analyzed using GraphPad Prism analysis software. The results are shown in Table 12 and 13 and in FIGS. 10A-D.

Cynomolgus monkey CD8a [2] = target: T2, Cynomolgus monkey CD8a; assay: flow cytometry on CD8 T cells (PI- CD3+ CD4-) within cynomolgus monkey PBMC, fluorescent anti-human IgG secondary, MFI at 647 nm
Procedure: as §1, with “Flow cytometric detection was performed on an ACEA Biosciences Novocyte-Quanteon Flow Cytometer.” left out, “The results are shown in Table 12 and 13 and in FIGS. 10A-D.” left out

Human CD8a = target: T3, Human CD8a (human, UniProt P01732 22-235); assay: flow cytometry, isolated human T cells, PI-CD4- gate (table title says transfected HEK293F cells)
T3 construct: also called CD8α; human CD8a-FL
T3 sequence (P01732 22-235): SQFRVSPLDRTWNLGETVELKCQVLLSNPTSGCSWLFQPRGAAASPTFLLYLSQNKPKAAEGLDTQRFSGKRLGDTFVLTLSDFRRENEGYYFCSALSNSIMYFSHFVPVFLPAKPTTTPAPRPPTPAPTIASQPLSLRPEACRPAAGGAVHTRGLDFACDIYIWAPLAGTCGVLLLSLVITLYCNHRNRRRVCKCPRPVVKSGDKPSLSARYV
Procedure: Binding of polypeptides comprising a humanized CD8a-binding VHH domain, an Fc region, and, in certain polypeptides, a mutated, attenuated IL-2 fused to the C-terminus of the Fc region, was assessed by flow cytometry on isolated human T cells. […] Complexes or polypeptides that are not labeled “KiH” form homodimers under physiologic conditions. The isolated cells were plated in a 96-well plate at 50,000 cells per well in FACS buffer (PBS, 1% BSA, 0.1% NaN₃, pH 7.4). Test polypeptides were then diluted to 2× the final concentration of 200 nM, and a 5-fold serial dilution was made. FACS buffer with no polypeptide was used as a secondary antibody-only control. Test polypeptides were added to an equal volume of cells, and assay plates were incubated for 30 minutes at 4° C. After washing twice with 150 μL of FACS buffer per well, the cells were resuspended in FACS buffer with a fluorescently-labeled anti-human IgG antibody diluted 1:1000 to detect CD8α binding and fluorescently labeled anti-CD4 antibody (clone OKT4, 1:200). Propidium iodide (PI) was added at 1:2000 to distinguish live cells from dead cells. Assay plates were incubated at 4° C. for 30 minutes. After one additional wash with 150 μL of FACS buffer, polypeptide bound to CD8α was detected by flow cytometry on PI-CD4− and on PI-CD4+ cells. Binding was measured on these cell populations as mean fluorescence intensity (MFI) at 647 nm. Flow cytometric detection was performed on an ACEA Biosciences Novocyte-Quanteon Flow Cytometer. The data were plotted and analyzed using GraphPad Prism analysis software.

Kd (Cynomolgus monkey CD8a [1]): 0.0499 nM
B4: hzB7v41-xELL-Fc (Fc fusion)
chain: QVQLVQSGGGEVQPGGSLRLSCAASGFTFDDYAMSWVRQAPGKGLEWVSTITWDAGGTYYAAPVKGRFTISRDNAKNTVYLQMSSLRAEDTAVYYCAKGSPELQYDTWGQGTLVTVRPDKTHTCPPCPAPGGPSVFLFPPKPKDTLMISRTPEVTCVVVDVSHEDPEVKFNWYVDGVEVHNAKTKPREEQYNSTYRVVSVLTVLHQDWLNGKEYKCKVSNKALPAPIEKTISKAKGQPREPQVYTLPPSRDELTKNQVSLTCLVKGFYPSDIAVEWESNGQPENNYKTTPPVLDSDGSFFLYSKLTVDKSRWQQGNVFSCSVMHEALHNHYTQKSLSLSPGK
notes: Homodimeric VHH-human IgG1 Fc xELL fusion

Bmax (MFI) (Human CD8a): 272000 MFI | Kd (Human CD8a): 0.0884 nM
B5: hzB7v37-xELL-KiH Fc-IL-2 mutant (Fc fusion)
chain 1: B4 chain with Q13K, R117K, Y244C, T261S, L263A, Y302V, H330R
chain 2: QVQLVQSGGGEVKPGGSLRLSCAASGFTFDDYAMSWVRQAPGKGLEWVSTITWDAGGTYYAAPVKGRFTISRDNAKNTVYLQMSSLRAEDTAVYYCAKGSPELQYDTWGQGTLVTVKPDKTHTCPPCPAPGGPSVFLFPPKPKDTLMISRTPEVTCVVVDVSHEDPEVKFNWYVDGVEVHNAKTKPREEQYNSTYRVVSVLTVLHQDWLNGKEYKCKVSNKALPAPIEKTISKAKGQPREPQVYTLPPCRDELTKNQVSLWCLVKGFYPSDIAVEWESNGQPENNYKTTPPVLDSDGSFFLYSKLTVDKSRWQQGNVFSCSVMHEALHNHYTQKSLSLSPG
notes: Knob-in-hole heterodimer: VHH on the N-terminus of each Fc, mutant IL-2 only on the knob Fc; not shown: mutant, attenuated IL-2 fused to the C-terminus of the knob Fc

Kd (Human CD8a): 0.148 nM
B6: hzB7v39-xELL-KiH Fc-IL-2 mutant (Fc fusion)
chain 1: B4 chain with Q13K, D54S, G56E, R117K, Y244C, T261S, L263A, Y302V, H330R
chain 2: B5 chain 2 with D54S, G56E
notes: as for B5

Kd (Cynomolgus monkey CD8a [1]): 0.0236 nM
B7: hzB7v35-xELL-Fc (Fc fusion)
chain: B4 chain with Q13K, G56E, R117K
notes: as for B4

Second part, the binder before the results:

B1: hzB7v31-xELL-KiH Fc-IL-2 mutant (Fc fusion)
chain 1: B4 chain with R117K, Y244C, T261S, L263A, Y302V, H330R
chain 2: B5 chain 2 with K13Q
EC50 of pSTAT5 induction in human CD8 T cells (IL-2 receptor): < 30 pM

B2: hzB7v29-xELL-Fc (Fc fusion)
chain: B4 chain with G56E, R117K
notes: as for B4
Kd (Cynomolgus monkey CD8a [1]): 0.0317 nM

B3: hzB7v31-xELL-Fc (Fc fusion)
chain: B4 chain with R117K
notes: Homodimeric VHH-human IgG1 Fc xELL fusion; also called CD8a-hzB7v31-Fc-xELL
Kd (Cynomolgus monkey CD8a [1]): 0.0389 nM | EC50 (read off the curve) (Cynomolgus monkey CD8a [2]): ~0.05 nM
